From article PMC8034621

Columns and labels:
[1] = biological target: biotinylated 4-heptad RNA polymerase II CTD peptide, Ser5 phosphorylated on all heptads
[2] = biological target: biotinylated 4-heptad RNA polymerase II CTD peptide, Ser2 phosphorylated on all heptads; experiment: pull-down on streptavidin-coupled Dynabeads, SDS-PAGE stained with Coomassie Blue, band quantification; conditions: biotinylated peptides of four CTD heptads; triplicate; parent: est. 1.0; read off a plot
[3] = biological target: biotinylated 4-heptad RNA polymerase II CTD peptide, Ser5 phosphorylated on all heptads; experiment: as above; conditions: biotinylated peptides of four CTD heptads; triplicate; parent: est. 1.0; read off a plot
[4] = biological target: RNA polymerase II CTD CTD (UniProt P24928); conditions: cited from earlier work
RNA polymerase II CTD CTD, sequence (P24928 1593-1970 A1835T): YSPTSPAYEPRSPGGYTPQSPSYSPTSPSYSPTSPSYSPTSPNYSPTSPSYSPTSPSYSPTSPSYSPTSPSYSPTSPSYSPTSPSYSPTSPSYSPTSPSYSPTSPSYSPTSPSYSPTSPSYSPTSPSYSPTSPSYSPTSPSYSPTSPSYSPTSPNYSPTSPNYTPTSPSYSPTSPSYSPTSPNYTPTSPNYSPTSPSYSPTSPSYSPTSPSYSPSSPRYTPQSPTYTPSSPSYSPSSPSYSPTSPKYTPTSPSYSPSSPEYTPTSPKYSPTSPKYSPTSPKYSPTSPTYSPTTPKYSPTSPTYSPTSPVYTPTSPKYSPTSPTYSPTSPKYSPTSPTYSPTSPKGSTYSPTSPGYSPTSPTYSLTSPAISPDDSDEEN

human capping enzyme (CE/RNGTT) GTase with the disordered flanking regions (211–597), wild-type, O60942 R358A; K403A; R411A, sequence (O60942 211-597 R358A/K403A/R411A): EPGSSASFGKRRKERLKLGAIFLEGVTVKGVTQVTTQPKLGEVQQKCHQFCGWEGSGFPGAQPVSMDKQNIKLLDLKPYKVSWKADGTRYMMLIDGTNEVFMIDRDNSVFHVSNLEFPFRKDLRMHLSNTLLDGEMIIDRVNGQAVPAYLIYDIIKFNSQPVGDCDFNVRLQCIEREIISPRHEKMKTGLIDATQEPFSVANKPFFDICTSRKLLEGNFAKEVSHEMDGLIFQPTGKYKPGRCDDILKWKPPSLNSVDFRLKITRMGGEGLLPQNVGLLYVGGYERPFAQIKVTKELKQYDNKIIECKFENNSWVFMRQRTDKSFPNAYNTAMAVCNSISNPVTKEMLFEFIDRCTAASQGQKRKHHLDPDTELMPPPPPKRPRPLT
human capping enzyme (CE/RNGTT) GTase with the disordered flanking regions (211–597), wild-type, O60942 R330A; K331A; R386A, sequence (O60942 211-597 R330A/K331A/R386A): as the sequence (O60942 211-597 R358A/K403A/R411A) above, with R120A, K121A, A148R, R176A, A193K, A201R counted along it
human capping enzyme (CE/RNGTT) GTase with the disordered flanking regions (211–597), wild-type, O60942 R330A; K331A; R386A; R358A; K403A; R411A, sequence (O60942 211-597 R330A/K331A/R358A/R386A/K403A/R411A): as the sequence (O60942 211-597 R358A/K403A/R411A) above, with R120A, K121A, R176A counted along it
mRNA capping enzyme GTase, sequence (O60942 229-597): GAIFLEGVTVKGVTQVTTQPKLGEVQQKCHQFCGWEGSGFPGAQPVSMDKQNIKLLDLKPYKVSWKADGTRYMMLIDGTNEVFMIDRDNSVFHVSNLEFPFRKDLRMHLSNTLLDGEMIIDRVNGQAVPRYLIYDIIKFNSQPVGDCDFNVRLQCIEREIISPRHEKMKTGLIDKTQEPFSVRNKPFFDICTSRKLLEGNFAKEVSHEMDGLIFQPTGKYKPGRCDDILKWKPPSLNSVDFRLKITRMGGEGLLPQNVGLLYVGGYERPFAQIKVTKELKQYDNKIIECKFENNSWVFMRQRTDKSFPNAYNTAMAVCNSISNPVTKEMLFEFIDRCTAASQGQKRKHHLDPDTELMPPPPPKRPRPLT
human capping enzyme (CE/RNGTT) GTase with the disordered flanking regions (211–597), wild-type, sequence (O60942 211-597): as the sequence (O60942 211-597 R358A/K403A/R411A) above, with A148R, A193K, A201R counted along it

| Substance | ratio to parent [2] | ratio to parent [3] | further results |
| --- | --- | --- | --- |
| human CE GTase (211–597) ΔCDS1 (R330A/K331A/R386A) (from UniProt O60942 211-597) (domain or fragment) | – | – | guanylyltransferase activity (32P-GMP bound to the GTase), 0-10 μM 4-heptad pSer5 CTD peptide, relative to basal activity [1]: 1.4 fold |
| human capping enzyme (CE/RNGTT) GTase with the disordered flanking regions (211–597), wild-type, O60942 R330A; K331A; R386A | 0.2 | 0.43 | – |
| human capping enzyme (CE/RNGTT) GTase with the disordered flanking regions (211–597), wild-type, O60942 R330A; K331A; R386A; R358A; K403A; R411A | 0.035 | 0.03 | – |
| human capping enzyme (CE/RNGTT) GTase with the disordered flanking regions (211–597), wild-type, O60942 R358A; K403A; R411A | 0.12 | 0.18 | – |
| human capping enzyme (CE/RNGTT) GTase with the disordered flanking regions (211–597), wild-type (from UniProt O60942 211-597) (domain or fragment) | – | – | guanylyltransferase activity (32P-GMP bound to the GTase), 0-10 μM 4-heptad pSer5 CTD peptide, relative to basal WT activity [1]: 2.2 fold |
| mRNA capping enzyme GTase (from UniProt O60942) | – | – | Kd [4]: 139 µM |
